Publication doi:10.1101/2021.01.08.425994 (bioRxiv, 2021)

Biological target: T1, His-tagged mouse CRY2 D325H PHR domain (residues 1-512) (mouse, UniProt Q9R194 1-512, D325H)
T1 sequence (looked up): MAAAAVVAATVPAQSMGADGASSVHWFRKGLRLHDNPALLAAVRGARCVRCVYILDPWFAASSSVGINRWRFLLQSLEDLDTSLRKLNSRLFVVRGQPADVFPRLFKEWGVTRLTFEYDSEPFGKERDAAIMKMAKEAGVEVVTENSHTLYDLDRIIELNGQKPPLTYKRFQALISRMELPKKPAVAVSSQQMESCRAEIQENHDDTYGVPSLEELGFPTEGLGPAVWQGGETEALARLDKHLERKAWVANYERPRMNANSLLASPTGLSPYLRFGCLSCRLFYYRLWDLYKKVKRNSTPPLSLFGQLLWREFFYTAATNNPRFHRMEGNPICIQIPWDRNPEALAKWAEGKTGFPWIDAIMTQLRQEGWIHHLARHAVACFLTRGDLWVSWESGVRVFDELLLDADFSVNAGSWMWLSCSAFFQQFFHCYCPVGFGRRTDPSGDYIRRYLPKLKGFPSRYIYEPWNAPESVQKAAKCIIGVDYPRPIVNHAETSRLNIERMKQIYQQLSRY
Experiment: BLI

B1: CLOCK:BMAL1 PAS domain core (PAS-AB domain heterodimer), biotinylated (complex)
chain 1: ASEIRQDWKPTFLSNEEFTQLMLEALDGFFLAIMTDGSIIYVSESVTSLLEHLPSDLVDQSIFNFIPEGEHSEVYKILSTHLLESDSLTPEYLKSKNQLEFCCHMLRGTIDPKEPSTYEYVRFIGNFKSLTSVSTSTHNGFEGTIQRTHRPSYEDRVCFVATVRLATPQFIKEMCTVEEPNEEFTSRHSLEWKFLFLDHRAPPIIGYLPFEVLGTSGYDYYHVDDLENLAKCHEHLMQYGKGKSCYYRFLTKGQQWIWLQTHYYITYHQWNSRPEFIVCTHTVVSYAEVRAERRRELGIEESL
chain 2: not shown
B1 gave a Kd of 1800 nM.
